Patent publication US20240262910A1
Substitutions are numbered along the chain they refer to. One block for each binder: values may come before it.

Tests used:
[1] = biological target: mouse CD33 extracellular domain with 6xHis-tag (mouse) (UniProt Q63994); assay: ELISA, hybridoma supernatant
[2] = biological target: cynomolgus monkey CD33 extracellular domain with 6xHis-tag (cynomolgus monkey); assay: ELISA, hybridoma supernatant

Sequence of mouse CD33 extracellular domain with 6xHis-tag (mouse) (Q63994 other isoform, or with tags, fused parts or gaps limits assumed): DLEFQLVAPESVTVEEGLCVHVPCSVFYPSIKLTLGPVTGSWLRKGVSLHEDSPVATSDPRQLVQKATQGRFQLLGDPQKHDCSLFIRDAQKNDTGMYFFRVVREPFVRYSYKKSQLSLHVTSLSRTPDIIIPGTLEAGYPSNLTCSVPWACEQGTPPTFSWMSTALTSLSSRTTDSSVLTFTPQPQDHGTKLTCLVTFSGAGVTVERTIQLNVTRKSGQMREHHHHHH

RLU [1]: 13700 RLU
RLU [2]: 12700 RLU
B1: 3-P14 (hybridoma antibody) (antibody, V domains shown)
VH: EVQLLESGGGLVQPGGSLRLSCAASGFTFSTYAMSWVRQAPGKGLEWVSAISGRGGSTYYTDSVKGRFTISRDNSKNTVSLQMNSLRAEDTAVYYCAGRGDYYYYYGMDVWGQGTTVTVSA
VL: DIVMTQSPLSSPVTLGQPASFSCRSSQSLVYSDGNTYLSWLQQRPGQPPRLLIYKISNRFSGVPDRFSGSGAGTDFTLKISRVEAEDVGVYYCMQSTQFPHTFGQGTKLEIK

RLU [2]: 35500 RLU
B2: 1-A20 (antibody, V domains shown)
VH: QVQLQESGPGLVKPSETLSLTCTVSGDSISSYYWSWIRQPAGKGLEWIGRIYTSGNTNYNPSLKSRVTMSVDKSKNQFSLKLRSVTAADTAVYYCARDGDNRDSDAFDIWGQGTMVTVSS
VL: SPGTLSLSPGERATLSCRASQNISSSYLAWCQQKPGQAPRLFIYGTSRRATGIPDRFSGSGSGTDFTLTISRLEPEDFAVYYCQQYGSSPLTFGGGTKVEIK

RLU [2]: 22500 RLU
B3: 1-H19 (antibody, V domains shown)
VH: B2 VH with D27G, S31T, K73T, F78L, D103N
VL: QSVLTQPPSVSGAPGQRVTISCTGSSSNIGAGYDVHWYQQLPGTAPKLLIYGNSNRPSGVPDRFSGSKSGTSASLAITGLQAEDEADYYCQSYDRSLSGWVFGGGTKLTVL
